This data set can be described thus: soluble on expression in E. coli; label from the status in PepcDB or PDB records.
For “MGHPETTKFHHLSTKVTISVPEEECYGSTNRTSFNGEDIEEVLEAILKSGMKLKMEKSNFGHAKIKFLGYIVLEEGIQTDPKTIKAIAKFPQPENVTDVRKFIGFALY”, the “soluble on expression in E. coli” value is on record as “not soluble”.
“MSLEAGAGAPLARYAAWRRAGDFIFLSGIIPVNPLTGTIVNGFQDVPEPVRELLGATGEFSTDAKQGPILAQSWYVLESIRRTVASAGGQMSDVIKLVQYFRNLDHFPYYSRVRKLFYPDQPPVSTVVQVSEMLPDATVLIEVEATVWLPPSFNSEAEGHHHHHH”: the “soluble on expression in E. coli” value was “soluble”.
On to “MRISLPVAEAAAAGGRAGKHGKAITFLTPDDTAVYFDLKQVKIVDGHLPTHVFSLNCLRRYARMDSRNMMLHGANLDNSHLDVKVNFLFENFKHFSVFLKLTKSSK”, for which the “soluble on expression in E. coli” value was “soluble”.
As for “MGSDKIHHHHHHMSEWDKNRWKEGRSSEYTWKGVVFMAKIMKQFLKGNDLSLSIQEIFKNELIPCTVRHLPKGEILWHDKEPHPYSYFIINGIIKLHVVTKEGREKALFYYTNGSLLGFQNLAKEKRTITTATAILPTSLYACEFSLLYTFVMNNPQYFAAFTSYIFHHMAVEAEEIVNISLYNTAERLAALLVLLAEEFPQNEQGYIEIPFNNEELATMVGACRNSVFNALSVFQKQKLIHKGRGRLVIADLPRLKEYV”, the “soluble on expression in E. coli” value is “not soluble”.
With “LNSPMITIVGTRTMTNYGKKILEEFVPKIIDSGIAVVSGLAKGIDAYAHQLALEKQGTAIAVIGNGTNISYPAENQSIQKRIISDGLLLSEYFPKSRPKQYHFPARNRILAGLTSATLVVEAKERSGSLITAAYATQENRNVLAIPGDLNRNNSNGTNQLIADGAKAVLKIDDILNE” the entry was “not soluble”; with “MTLPIRNVAIIAHVDHGKTTLVDALLKQSGIFREGEDVPDCVMDSNALERERGITILSKNTAVRYKETLINIVDTPGHADFGGEVERVLGMVDGCLLIVDANEGPMPQTRFVLKKALEKGLRPIVVVNKIDRGQADPHVAVDKVLDLFLELGADEDQCDFPYLFASGMGGYAKENLEAESVDMQPLFDAILRHVPAPVGDPNKPLQLQVTTLDYSEYLGRIVIGRIHNGTIRAGQQAALVVEDGSIVKGKITKLMGFEGLKRVEMTEATAGYIVAVAGFADAYIGETITDPNEPQALPLIKVDEPTLQMTFWVNDSPFAGQEGKLVTSRQVRDRLFRELETNVALRVEETDSPDKFLVSGRGELHLGILIETMRREGFEFQVSQPQVIYRTVNGQPCEPYELLVLDVPADAVGSCIERLGQRKGEMQDMQPVAGDRTQLEFVIPARGLIGFRGEFMRMTRGEGIMNHSFLDYRQLSGDIEARNKGVLISFEEGISTFYAMKNAEDRGSFFITPGTKVYRGMIVGEHNRPQDLELNVCKTKQLTNHRASGGDELVQLQAPVDMSLERALEYIGPDELVEVTPQSIRLRKMAKKLAKR”, “not soluble”; with “GPGSMAPALCFTCMQPSRWTREGLPLILPLFQHLSPLSPFPNPSCNGISMCCTHTHTHTHTHTHTHTHAHTRLHLFQRFCFVNAIDFYELGAKSTRRVHGKVIIAARSRAPAMPPPAAAVSSSPSSSAAPMAVVYVRRDGRTALELRGKEMKLSDMTTFDGSSWYAQGQTAVMVSIHGPTIAKNDEYDTCIVQVRIQHAGVLAPAAGGAEKALYEERKLELLTRTDALALGSLLESTLNAVFLRERFPRCVLVVDVIVVRDDGSLPAVALNAVMSALLDAGLPCRTTMAAVCVAVLTHDGGADSNSGPAPDRHSSVEGSSSAGSVYEYLLDPTSAEESLGVGYAVPASSAAEKAAVTGASSVATSSAAPMSLRGGNAAQQVQGQYRCVSTGVFAFSNPACGGGLLAQLVRSVGSGSAEMCGPGVSVQAYAEMVALAERASAVLFEFFRQCNVAE”, “not soluble”.
Regarding “TPDFTWKTSLNFSANKNKIVELHEELKEFVYGPTSFSSSYAMKLVKGGSIGDIYGKAFIRDEAGSIVYGTDGDYKGLPLVEGDGNTVKVGNANPDFMLGWNHSFSYKGFSLYFLLDWRYGGEVLSQTQAEMDLYGVSKATAQARDKGYVSLEGQQISDVKGFYKNVVGGRAGVTEYYMYDATNLRLREISLSYSFPRKWVQKTNCLKDLQLSFVARNLCFLYKKAPFDPDLVLSTGNDNQGIEVFGMPTTRSLGFTLTCEF”, the “soluble on expression in E. coli” value was “not soluble”.
“MKVVLQRVTRAAVTVGDEVVGSIGRGLCVLVGVHRDDTEEDMKYIIRKILNLRVFPASEQKPWDKSVMDLDLEVLSVSQFTLYGQFKGNKLDFHTAMAPTEASKFYASFLEAMKKAYKADKIQDGKFAAMMSVDIVNDGPVTVTFDSKEK”: the “soluble on expression in E. coli” value is on record as “not soluble”.
Take “MAFKFKTFAAVGALIGSLALAGCGQDEKDPNHIKVGVIVGAEQQVAEVAQKVAKEKYGLDVELVTFNDYVLPNEALSKGDIDANAFQHKPYLDQQIKDRGYKLVSVGKTFVYPIAGYSKKIKSLDELKDGSQVAVPNDPTNLGRSLLLLQKVGLIKLKDGVGLLPTSLDIVENPKNLKIVELEAPQLPRSLDDAQIALAVINTTYASQIGLTPAKDGIFVEDKDSPYVNLIVTREDNKDAENVKKFVQAYQSDEVYEAANKVFNGGAVKGWLEHHHHHH”: the “soluble on expression in E. coli” value is listed as “soluble”.
Consider “MGSDKIHHHHHHMKTKVAAIYGKRDVRLRVFELPEITDNELLVSVISDSVCLSTWKAALLGSEHKRVPDDLENHPVITGHECAGVIVEVGKNLTGKYKKGQRFVLQPAMGLPSGYSAGYSYEYFGGNATYMIIPEIAINLGCVLPYHGSYFAAASLAEPMCCIIGAYHANYHTTQYVYEHRMGVKPGGNIALLACAGPMGIGAIDYAINGGIQPSRVVVVDIDDKRLAQVQKLLPVELAASKGIELVYVNTKGMSDPVQMLRALTGDAGFDDIFVYAAVPAVVEMADELLAEDGCLNFFAGPTDKNFKVPFNFYNVHYNSTHVVGTSGGSTDDMKEAIALSATGQLQPSFMVTHIGGLDAVPETVLNLPDIPGGKKLIYNGVTMPLTAIADFAEKGKTDPLFKELARLVEETHGIWNEQAEKYLLAQFGVDIGEAAQ”, for which the “soluble on expression in E. coli” value is “not soluble”.
For the sequence “MGSDKIHHHHHHMERDMICTPISYQNKTSAQTFSNFLKHTRTENNLSQEDLCGLLRQKSCLFDTLDSITISRWERGVNIPSLAKQSEIVEIFGSELFDIYREDKKFINEGLALINLFESNIERSDHPYYRNTPYRVEFIESHHHNFMALLQLSLVYESNPRLSFVSRNLSQPFFHGLSLVVAFSSGDQIVGHSLFCRSQGKIALEFMNDEVDLFEVINHNSQALPDTLMVFSSFGVTPYIENYMMSVYLNELAASRSLKFLSFNICDESLKRKLTQFKLPIFKVRTIEGCCKPIKNYSFFSSRTEVMANRNLLKLSVIPSSKSQTIDPIFFMQLETPI”, the “soluble on expression in E. coli” value was “not soluble”.
As to “MGSDKIHHHHHHMNDALITDALIRGRHAKRGFHRERPVPLETVRDILAVAKYAPSSSNTQPWRCYVVIGDARDRLANAAVEAYRADPENLTPEYPFFPKPLHEPYSARFNTFRGQLGDAQGVPRSDKAGRRRDVERQFRFFDAPIGLIFTMDRRLEWASFLCYGCFLQNIMLAARARGLDTCPQQIWSLQYAVLREQLDIPEGEMVVAGMSLGYADDSLPENNMALRRLELEEFVSVIEG”, the “soluble on expression in E. coli” value is listed as “not soluble”.
Turning to “AHHHHHHGSHKLKVSVSFSYGKKEIVKNVEFEGKVGEIIAIIGPNGAGKSTLLKCIAGILKPRGIIEYNGIDLTKLKPKERAKIVGYVPQSSYPEFAFTVEEFVELGTYAGKGDVDEAIRRVGLWEKRKEFITNLSGGEYQLTLIARALAQGGDIMLLDEPTSHLDINHTREIMEILQELKKEKLIIAVFHDLNLAINYADEIIVLKNGETAWKGKSKEISEEVIEATYGIKPRIVREDGIVAVLP”, the “soluble on expression in E. coli” value is given as “soluble”.
With “MGSDKIHHHHHHMELTESIRLLFPPEERAQLDISAIKGDASNRQYYRVTGQGSVSVVCADPAFRATAVENYPFLIVRDLFARHGIRVPELLGMVHEQGLLRLEDCGDLMLQDEVPLLDRNRLSARYRQVIDLLVRIQSIRPDKDALTTTLPFSLSFDHEKLMFEFDFFIEHALNGYFAGRLGKPAIARLREEFINICDLLVLPKHFVLNHRDFHSRNIMLFRAEPVVIDFQDARLGLPQYDAVSLLRDSYVRLDPGMVNELKRYHFNQLVQLGLTSMGEAEYLRLFDLMAFQRNVKAIGTFCYQTTVAGNRTFEPSIAATLSYLREYIEARPELAMAGRLLKPIIPEISR” the entry was “not soluble”.
Under “MKEKILLGGYTKRVSKGVYSVLLDTKAAELSSLNEVAAVQNPTYITLDEKGHLYTCAADSNGGGIAAFDFDGETATHLGNVTTTGAPLCYVAVDEARQLVYGANYHLGEVRVYKIQANGSLRLTDTVKHTGSGPRPEQASSHVHYSDLTPDGRLVTCDLGTDEVTVYDVIGEGKLNIATIYRAEKGMGARHITFHPNGKIAYLVGELNSTIEVLSYNEEKGRFARLQTISTLPEDYHGANGVAAIRISSDGKFLYTSNRGHDSLTTYKVSPLGTKLETIGWTNTEGHIPRDFNFNKTEDYIIVAHQESDNLSLFLRDKKTGTLTLEQKDFYAPEITCVLPLLEHHHHHH” stands “not soluble”; under “MGSDKIHHHHHHMEHTYRLVISCPDRVGIVAKVSNFLSTYNGWITEASHHSDTQAGWFFMRHEIKAESIPFGLDQFRAAFEPIAREFNMNWHIADSARPKRVILMCSKESHCLADLLHRWHSKELNCEIVAVISNHDDLRRMVEWHEIPYHHVPVSKENKAEAFAHIDELFQQYETDVVVLARYMQILPAELCGKYSGKVINIHHSFLPSFAGARPYHQAYSRGVKLIGATCHYVTQDLDEGPIIEQDVIRISHSDSIEDMVRLGKDVEKNVLARGLRSHIEDRVITYENKTVVFD”, “not soluble”.
“MDNQKRPFTTRFDHYNYNVLNLERSLAFYDRAFGFREVKRKEAADGSFILVYLGDVYGHFLLELTWLRDRKEPYNLGENEVHLCVRTTGDYDAVREYHRAMGCICYENEQMGLYFVNDPDGYWIEVLPENRD”: the “soluble on expression in E. coli” value is reported as “not soluble”.
For the sequence “MAAERKTKLSKNLLRMKFMQRGLDSETKKQLEEEEKKIISEEHWYLDLPELKEKESFIIEEQSFLLCEDLLYGRMSFRGFNPEVEKLMLQMNAKHKAEEVEDETVELDVSDEEMARRYETLVGTIGKKFARKRDHANYEEDENGDITPIKAKKMFLKPQD”, the “soluble on expression in E. coli” value is “soluble”.
In the case of “MAKNKTVFSCTECGGQSPKWQGQCPHCSAWNTLVEAVAAPAAASPRFQSWAANVTKVQKLSEVQTEETPRDPSGIDELDRVLGGGIVRGAVVLIGGDPGIGKSTLLLQALSQIGRSRKVLYVSGEESAQQIALRASRLALDTSSVDLLAEICIENILETLKREQPEVVVIDSIQTLYTEQVTSAPGSVSQVRECAAQLTRMAKQSGITVLLVGHVTKEGSLAGPRVLEHMVDTVLYFEGDSHSSYRMIRAIKNRFGAVNELGVFAMTDRGLKGVSNPSAIFLSSYRDDVAGSCVLVTQEGTRPLLVEIQALVDDCHGFQPKRLTVGLEQNRLSMLLAVLHRHGGVACFDQDVFLNAVGGVKINEPAADLAIILAMVSSLRNKALPEKLVVFGEVGLAGEVRPVTRGQERLKEAAKLGFTRAIVPTANKPRQEIEGLKVLAVDRLDQAVEYCRE”, the “soluble on expression in E. coli” value is given as “not soluble”.
